From paper PMC8016751 (Nature, 2020)
Read-outs that look alike come from different tables or passages of the source.

Key:
[1] = molecular target: Mer2 coiled-coil single-chain dimer (S. cerevisiae) (UniProt P21651); experiment: SEC-MALS
Rec114-Mei4 = molecular target: T1, Rec114-Mei4 (Saccharomyces cerevisiae, UniProt P32841;P29467 1-428;1-408); experiment: EMSA
T1 sequence 1: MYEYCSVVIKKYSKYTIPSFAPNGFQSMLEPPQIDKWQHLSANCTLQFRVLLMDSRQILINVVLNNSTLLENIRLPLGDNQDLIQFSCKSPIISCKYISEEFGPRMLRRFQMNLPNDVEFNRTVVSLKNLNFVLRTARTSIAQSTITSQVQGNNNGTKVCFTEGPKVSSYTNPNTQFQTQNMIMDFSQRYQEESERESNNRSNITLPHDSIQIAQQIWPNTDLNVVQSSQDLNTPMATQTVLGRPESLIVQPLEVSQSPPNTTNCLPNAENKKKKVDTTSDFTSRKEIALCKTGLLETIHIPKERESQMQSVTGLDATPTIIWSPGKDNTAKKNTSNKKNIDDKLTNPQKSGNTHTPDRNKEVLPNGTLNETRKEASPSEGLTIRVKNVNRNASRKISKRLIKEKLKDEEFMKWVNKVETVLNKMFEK
T1 sequence 2: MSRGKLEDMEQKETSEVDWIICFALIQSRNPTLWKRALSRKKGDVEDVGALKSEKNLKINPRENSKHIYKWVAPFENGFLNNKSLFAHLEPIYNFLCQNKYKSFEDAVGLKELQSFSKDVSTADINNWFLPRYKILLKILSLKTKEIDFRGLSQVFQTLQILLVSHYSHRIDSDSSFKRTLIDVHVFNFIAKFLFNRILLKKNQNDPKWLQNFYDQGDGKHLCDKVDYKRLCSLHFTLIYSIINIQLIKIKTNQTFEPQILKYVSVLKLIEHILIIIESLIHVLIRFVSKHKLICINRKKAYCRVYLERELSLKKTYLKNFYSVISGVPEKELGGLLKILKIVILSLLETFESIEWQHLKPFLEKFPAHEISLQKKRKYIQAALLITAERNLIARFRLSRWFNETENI

Mer2 = molecular target: T2, Mer2 (Saccharomyces cerevisiae, UniProt P21651 1-314); experiment: EMSA
T2 sequence: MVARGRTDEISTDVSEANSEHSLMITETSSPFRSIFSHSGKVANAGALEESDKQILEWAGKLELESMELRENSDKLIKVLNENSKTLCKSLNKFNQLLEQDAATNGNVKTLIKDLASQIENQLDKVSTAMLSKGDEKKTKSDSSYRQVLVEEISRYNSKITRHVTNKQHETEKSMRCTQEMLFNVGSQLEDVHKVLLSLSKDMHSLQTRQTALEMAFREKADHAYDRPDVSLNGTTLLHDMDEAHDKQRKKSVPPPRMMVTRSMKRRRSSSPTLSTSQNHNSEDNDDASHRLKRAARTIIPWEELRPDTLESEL

SEC-MALS [2] = molecular target: the molecule itself; experiment: SEC-MALS
SEC-MALS [3] = molecular target: the molecule itself; experiment: SEC-MALS; remark: listed apart in the source
MBP-tagged Mei4 = molecular target: T3, MBP-tagged Mei4 (S. cerevisiae, UniProt P29467 1-408); experiment: SEC-MALS
T3 sequence: T1 sequence 2

[4] = molecular target: T4, Mei4 (untagged, from ^MBP-TEVMei4) (S. cerevisiae, UniProt P29467 1-408); experiment: SEC-MALS
T4 sequence: T1 sequence 2

Q: With “Mer2 coiled-coil single-chain dimer (from UniProt P21651)” as the molecule, how does the stoichiometry N [1] read?
A: Its stoichiometry N is 2.

B1: dsDNA20 (dsDNA)
DNA 1: AAAGATGTCCTAGCAATGTA
DNA 2: TACATTGCTAGGACATCTTT
Q: Which “apparent K (half saturation)” value (Rec114-Mei4) does the source give for B1 here?
A: The value was roughly 80 nM.

Q: And the “apparent K (half saturation)” value (Mer2)?
A: The value was greater than 400 nM.

B2: Mer2 (untagged, from ^SUMOMer2) (natural protein)
chain: T2 sequence
Q: B2 was tested. Which “stoichiometry N” value (SEC-MALS [2]) did it give?
A: Its value is 4.

B3: Mer2 coiled-coil domain (residues 77-227) (domain or fragment)
chain: IKVLNENSKTLCKSLNKFNQLLEQDAATNGNVKTLIKDLASQIENQLDKVSTAMLSKGDEKKTKSDSSYRQVLVEEISRYNSKITRHVTNKQHETEKSMRCTQEMLFNVGSQLEDVHKVLLSLSKDMHSLQTRQTALEMAFREKADHAYDR
Q: How did the “stoichiometry N” value (SEC-MALS [3]) turn out when B3 was run?
A: Its value is 4.

B4: dsDNA80 (dsDNA)
DNA 1: CTAGTATAGAGCCGGCGCGCCATGTCTAGATAGCGTTAGGTCTGCCGAATAGTACTACTCGGATCCCGAGCGAACCACGC
DNA 2: GCGTGGTTCGCTCGGGATCCGAGTAGTACTATTCGGCAGACCTAACGCTATCTAGACATGGCGCGCCGGCTCTATACTAG
Q: With B4 as the molecule, how does the “apparent K (half saturation)” value (Rec114-Mei4) read?
A: The value was 6 nM.

Q: And the “apparent K (half saturation)” value (Mer2)?
A: Its value is 19 nM.

B5: dsDNA40 (dsDNA)
DNA 1: CAACGTGGGCAAAGATGTCCTAGCAATGTAATCGTCTATG
DNA 2: CATAGACGATTACATTGCTAGGACATCTTTGCCCACGTTG
Q: What does the source list for B5?
A: apparent K (half saturation) (Rec114-Mei4): 35 nM; apparent K (half saturation) (Mer2): 64 nM

B6: HisFlag-tagged Rec114 (natural protein)
chain: T1 sequence 1
Q: Which “stoichiometry N” value (MBP-tagged Mei4) does the source give for B6 here?
A: Its value is 2 Rec114 per Mei4.

B7: Rec114 (untagged, from ^HisFlag-TEVRec114) (natural protein)
chain: T1 sequence 1
Q: B7 was tested. Which “stoichiometry N” value [4] did it give?
A: The value was 2 Rec114 per Mei4.
